Assay results: PMC11150925

B1: rCsPGDS1 (Clonorchis sinensis) (protein)
chain: MSQYKLTYFNLRGRAEPIRMVLIISGTPFEDCRIEVSDWPSKKSTIPGGKLPILEVTSPCGKKTLMTESMATARYLAKQHNLMGATDEDYYKIEKTIGECGDLHDLVYKIARAPDAEKPKLIEELKKLENAPRLLNLMSETLKSNPSGFVAGEKVSLGDIALLCTLDQFESVYPGFLKENYPIFANHREHIMELQPKLAEHIKTRPTTIV
B2: rCsGST-σ1 (Clonorchis sinensis) (protein)
chain: MADEHYTLFYFQFRGRAEAIRMILHANGVHFKDERFTMNEWPERRNQIPGSRVPLLQVKKNKTHEVANYVESMAIARMLAKRFHMMGDSEEEYYRVERMIGQCADLDKEFYTAFFAAADQKEEMLKKSMREAVPKMLDLISKSISESGGKFAAGDKVTLGDICLLTSMDHVRKHDPEFLGKHYPKLLVLEQEVLKAKPKLAEYIRTRPETPL
B3: rCsGST-σ3 (Clonorchis sinensis) (protein)
chain: MSGEKYKLYYFPFRARGEVIRMVLHAAGVPFDDERIPMDDWPKRKSEIPGGRMPVLQVIDPDKPDTPKNFVEGMAIARMLAKRFDLMDDTEEGYYNTERMIGECEDVFKEFRSVFLSPADKKEELLKEAMETSIPKQLDLISKSLSESAGKFVAGCKVTLGDLCLLACLDHVDKSDPEFLKDKYPKLLEWREEVLKEKPKLADYIKSRPDTPF
B4: rCsGST-μ1 (Clonorchis sinensis) (protein)
chain: MAPVLGYWKIRGLAQPIRLLLEYVGDSYEEHSYGRCDGEKWQNDKHNLGLELPNLPYYKDGNFSLTQSLAILRYIADKHNMIGNTPVERAKISMIEGGLVDLRAGVSRIAYQETFVCIVSTFCLSHTSQEQLKVPYLQQLPSTLRMWSQFLGNNSYLHGSTPTHLDFMFYEALDVIRYLDPTSVEAFPNLMQFIHRIEALPNIKAFMESDRFIKWPLNGWSAYFGGGDAPPK

Substrate: [H][C@]12C[C@]([H])(OO1)[C@H](C/C=C\CCCC(=O)O)[C@H]2/C=C/[C@@H](O)CCCCC
Experiment: purified protein
Conditions: PGD2 synthase reaction; 2 mM GSH fixed (saturating); PGH2 0.08-40 μM

| Protein | Km [µM] | kcat [s⁻¹] | kcat/Km [M⁻¹ s⁻¹] |
| --- | --- | --- | --- |
| B1 | 21.0 | 90.6 | 4.3e+06 |
| B2 | 92.1 | 451 | 4.9e+06 |
| B3 | 30.2 | 90.7 | 3e+06 |
| B4 | 4.9 | 12.5 | 2.6e+06 |
